In PMC6692406, “Optimization of a reduced enzymatic reaction cascade for the production of L-alanine” (Scientific Reports, 2019):

Columns and labels:
[1] = target: T1, CcDHAD (dihydroxyacid dehydratase) (Caulobacter vibrioides, UniProt Q9A9Z2); assay: inhibition of D-gluconate dehydration (experimental analysis in Figure S2); format: biochemical
T1 construct: gene xylD; codon-optimised gene in pET28a, recombinant in E. coli BL21(DE3), purified on His GraviTrap; MnCl2 added before freezing
T1 sequence (Q9A9Z2 1-595): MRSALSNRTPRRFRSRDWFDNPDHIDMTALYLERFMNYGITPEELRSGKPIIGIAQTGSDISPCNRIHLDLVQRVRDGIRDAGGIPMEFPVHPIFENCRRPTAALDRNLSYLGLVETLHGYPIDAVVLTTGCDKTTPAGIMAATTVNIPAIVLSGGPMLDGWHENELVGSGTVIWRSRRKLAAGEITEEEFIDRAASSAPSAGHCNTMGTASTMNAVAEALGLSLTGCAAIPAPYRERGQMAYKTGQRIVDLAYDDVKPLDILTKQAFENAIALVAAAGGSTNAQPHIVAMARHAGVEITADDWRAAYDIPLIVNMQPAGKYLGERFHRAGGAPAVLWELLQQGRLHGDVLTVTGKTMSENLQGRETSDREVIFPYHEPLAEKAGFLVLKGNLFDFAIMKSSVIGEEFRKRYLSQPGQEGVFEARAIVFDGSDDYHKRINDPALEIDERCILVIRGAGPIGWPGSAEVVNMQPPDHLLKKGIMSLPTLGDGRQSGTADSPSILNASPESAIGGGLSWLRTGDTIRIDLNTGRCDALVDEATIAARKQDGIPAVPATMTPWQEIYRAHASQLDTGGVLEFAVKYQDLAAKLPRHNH

purified protein [2] = substrate: NC(=O)c1ccc[n+]([C@@H]2O[C@H](COP(=O)(O)OP(=O)(O)OC[C@H]3O[C@@H](n4cnc5c(N)ncnc54)[C@H](O)[C@@H]3O)[C@@H](O)[C@H]2O)c1; assay: purified protein; format: biochemical, Methanocaldococcus jannaschii; conditions: 50 °C, 100 mM HEPES pH 7.35, 100 mM ammonium sulfate, varied: cofactor
purified protein [3] = substrate: O=C[C@H](O)CO; assay: purified protein; conditions: substrate not named in table (D-glyceraldehyde from the cascade), cofactor NAD, 50 °C, 100 mM HEPES pH 7.35, 100 mM ammonium sulfate
purified protein [4] = substrate: NC(=O)C1=CN([C@@H]2O[C@H](COP(=O)(O)OP(=O)(O)OC[C@H]3O[C@@H](n4cnc5c(N)ncnc54)[C@H](O)[C@@H]3O)[C@@H](O)[C@H]2O)C=CC1; assay: purified protein; format: biochemical, Archaeoglobus fulgidus; conditions: 0.005-0.3 mM NADH, 1 mM pyruvate, 100 mM (NH4)2SO4, 50 °C, 100 mM HEPES pH 7.35, varied: cofactor
purified protein [5] = substrate: CC(=O)C(=O)O; assay: purified protein; format: biochemical, Archaeoglobus fulgidus; conditions: 0.1-1 mM pyruvate, 0.2 mM NADH, 100 mM (NH4)2SO4, 50 °C, 100 mM HEPES pH 7.35
purified protein [6] = substrate: O=C(O)[C@H](O)[C@@H](O)[C@H](O)[C@H](O)CO; assay: purified protein; format: biochemical, Caulobacter vibrioides; conditions: 0.2-20 mM D-gluconate, 1 mM NAD, 50 °C, 100 mM HEPES pH 7.35, 100 mM ammonium sulfate, enzyme stored with MnCl2
purified protein [7] = substrate: O=C(O)C(=O)C[C@H](O)[C@H](O)CO; assay: purified protein; format: biochemical, Picrophilus oshimae; conditions: 0.03-3 mM KDG, 1 mM NAD, 50 °C, 100 mM HEPES pH 7.35, 100 mM ammonium sulfate

O=C(O)[C@H](O)CO [D-glycerate]
Ki [1]: ~500 µM

B1: MjALDH (aldehyde dehydrogenase) (Methanocaldococcus jannaschii DSM 2661) (protein)
chain: MFIDGKWINREDMDVINPYSLEVIKKIPALSREEAKEAIDTAEKYKEVMKNLPITKRYNILMNIAKQIKEKKEELAKILAIDAGKPIKQARVEVERSIGTFKLAAFYVKEHRDEVIPSDDRLIFTRREPVGIVGAITPFNFPLNLSAHKIAPAIATGNVIVHHPSSKAPLVCIELAKIIENALKKYNVPLGVYNLLTGAGEVVGDEIVVNEKVNMISFTGSSKVGELITKKAGFKKIALELGGVNPNIVLKDADLNKAVNALIKGSFIYAGQVCISVGMILVDESIADKFIEMFVNKAKVLNVGNPLDEKTDVGPLISVEHAEWVEKVVEKAIDEGGKLLLGGKRDKALFYPTILEVDRDNILCKTETFAPVIPIIRTNEEEMIDIANSTEYGLHSAIFTNDINKSLKFAENLEFGGVVINDSSLFRQDNMPFGGVKKSGLGREGVKYAMEEMSNIKTIIISK
notes: codon-optimised gene in pET28a (NcoI/XhoI), recombinant in E. coli BL21(DE3), purified by heat treatment (70 °C) and desalting
Km (purified protein [2]): 300 µM | Km (purified protein [3]): 300 µM

B2: AfAlaDH (L-alanine dehydrogenase) (Archaeoglobus fulgidus DSM 4304) (protein)
chain: METLILTQEEVESLISMDEAMNAVEEAFRLYALGKAQMPPKVYLEFEKGDLRAMPAHLMGYAGLKWVNSHPGNPDKGLPTVMALMILNSPETGFPLAVMDATYTTSLRTGAAGGIAAKYLARKNSSVFGFIGCGTQAYFQLEALRRVFDIGEVKAYDVREKAAKKFVSYCEDRGISASVQPAEEASRCDVLVTTTPSRKPVVKAEWVEEGTHINAIGADGPGKQELDVEILKKAKIVVDDLEQAKHGGEINVAVSKGVIGVEDVHATIGEVIAGLKDGRESDEEITIFDSTGLAIQDVAVAKVVYENALSKNVGSKIKFFRI
notes: codon-optimised gene in pET24a, recombinant in E. coli BL21(DE3), purified by heat treatment (70 °C) and desalting
Km (purified protein [4]): 60 µM | Km (purified protein [5]): 200 µM

B3: CcDHAD (dihydroxyacid dehydratase) (Caulobacter vibrioides CB15) (protein)
chain: T1 sequence (Q9A9Z2 1-595)
notes: codon-optimised gene in pET28a, recombinant in E. coli BL21(DE3), purified on His GraviTrap; MnCl2 added before freezing
Km (purified protein [6]): 3200 µM

B4: PtKDGA (2-keto-3-deoxygluconate aldolase) (Picrophilus oshimae DSM 9789) (protein)
chain: MITPLDAHGNIDYNATNILIKYLEGINVDYLFPMGSTGVFPYFTLKERKDFLKFVRENSKKPIMAGVGSSSINEVNELMKFSMDIGIEAAVLMPPYYIKLNQEAIYHYYKEILSSNDMDLLIYNIPQFTNKIDPETVKNLKSEFSSVKGVKDSSADIRGFMEMLSLSDDDFAVFQGQDDLLFTSLELGASGGVCGTTNFSDGIVRLYHEYKNNREMALKIEKNDVIPLMKKLGKYQFPNAYYEYFYKKNNINGGYRPPMYRVGIEI
notes: codon-optimised gene in pET28a, recombinant in E. coli BL21(DE3), heat treated (65 °C) and purified on His GraviTrap
Km (purified protein [7]): 1100 µM
